From patent publication US20030068788A1 come the findings set out here.

The target of data set [1] is T1, ferredoxin encoded by fd233 from strain I-1529.
T1 chain: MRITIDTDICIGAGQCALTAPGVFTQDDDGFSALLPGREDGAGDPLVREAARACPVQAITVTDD

Data set [2] deals with T2, ferredoxin encoded by fd233 from strain I-1529 (Streptomyces tubercidicus strain I-1529).
T2 sequence: T1 chain
The data set is described as follows: cell-based or functional assay.

For data set [3], the target named is T3, P450Ema1 monooxygenase from Streptomyces tubercidicus strain R-922 (Streptomyces tubercidicus strain R-922).
T3 sequence: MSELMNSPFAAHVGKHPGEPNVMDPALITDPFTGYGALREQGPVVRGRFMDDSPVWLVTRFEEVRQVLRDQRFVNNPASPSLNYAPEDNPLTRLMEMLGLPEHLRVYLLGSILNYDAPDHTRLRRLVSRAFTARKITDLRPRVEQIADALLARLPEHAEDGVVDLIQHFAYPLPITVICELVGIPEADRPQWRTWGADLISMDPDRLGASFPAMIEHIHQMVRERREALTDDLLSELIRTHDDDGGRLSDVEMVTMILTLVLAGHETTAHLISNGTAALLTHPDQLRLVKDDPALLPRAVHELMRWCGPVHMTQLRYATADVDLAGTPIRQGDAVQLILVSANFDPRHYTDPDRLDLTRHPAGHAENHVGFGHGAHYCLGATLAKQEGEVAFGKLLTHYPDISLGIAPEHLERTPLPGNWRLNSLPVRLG
In words: cell-based or functional assay.

The target in data set [4] is T4, P450Ema1A, N-terminally truncated P450Ema1 encoded by ema1A (Streptomyces tubercidicus strain R-922).
T4 sequence: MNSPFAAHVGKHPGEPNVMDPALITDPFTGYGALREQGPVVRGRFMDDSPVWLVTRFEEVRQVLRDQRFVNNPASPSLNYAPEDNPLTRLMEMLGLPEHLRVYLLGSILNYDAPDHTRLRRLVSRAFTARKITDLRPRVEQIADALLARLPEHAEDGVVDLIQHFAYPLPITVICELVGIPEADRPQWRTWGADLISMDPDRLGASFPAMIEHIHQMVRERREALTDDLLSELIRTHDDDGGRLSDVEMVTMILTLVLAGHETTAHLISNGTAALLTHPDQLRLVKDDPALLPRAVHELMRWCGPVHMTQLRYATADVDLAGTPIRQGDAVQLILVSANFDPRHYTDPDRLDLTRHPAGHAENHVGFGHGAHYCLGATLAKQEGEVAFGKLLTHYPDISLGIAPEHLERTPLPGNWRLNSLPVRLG
In words: cell-based or functional assay.

Data set [5] deals with T5, P450Ema2 monooxygenase from Streptomyces tubercidicus strain I-1529 (Streptomyces tubercidicus strain I-1529).
T5 sequence: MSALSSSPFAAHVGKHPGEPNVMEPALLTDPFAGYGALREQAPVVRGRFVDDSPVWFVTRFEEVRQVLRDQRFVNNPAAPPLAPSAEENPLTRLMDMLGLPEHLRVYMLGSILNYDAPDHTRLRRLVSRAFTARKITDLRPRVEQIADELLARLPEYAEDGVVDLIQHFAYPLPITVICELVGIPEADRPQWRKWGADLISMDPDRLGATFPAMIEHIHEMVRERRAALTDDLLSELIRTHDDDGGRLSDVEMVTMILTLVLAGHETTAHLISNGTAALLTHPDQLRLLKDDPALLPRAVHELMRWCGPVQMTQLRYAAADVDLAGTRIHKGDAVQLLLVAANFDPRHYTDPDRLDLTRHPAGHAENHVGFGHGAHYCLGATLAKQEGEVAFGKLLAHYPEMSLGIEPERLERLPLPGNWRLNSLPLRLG
The data set is described as follows: cell-based or functional assay.

B1: ferredoxin reductase encoded by fre12 (protein)
chain: MPAARRRLRPPHRSGDLPARPPGRAHPPRDRPGRHDLRPSRRGGGHRRMKSVAVIGASLAGLYAARSLRSQGFDGRLVIVGDECHGPYDRPPLSKDFLTGATDPGRLALADAEEIAELDAEWLLGTRATGLDTGGRTVLLDGGRSLTTDGVVLATGAAPRLLPGPVPAGVHTLRTLDDAQALRADLAPAPVRVVVIGGGFIGAEVASSCAALGHDVTVVEAAPLPLVPQLGHAMAEICAALHADHGVTLLTGTGVARLRSEGDGRRVTGVELTDGRLLPADVVVVGIGVRPRTAWLTDSGLPLDDGVLCDAGCVTPLPAVVAVGDVARVDGARAEHWTSATEQAAVAARNLLAGSTVATHRSLPYFWSDQYGVRIQFAGHRLPTDTPRVLEGSPDDRSFLACYERDGRTTAVLALNRPRPFMRLRRELARTALSATT
On to B1, for which the “biocatalysis activity, S. lividans ZX7 with ema1/fd233/fre operons in pTUA, pTBBKA and pEAA” value in data set [1] is on record as “In each case there was no impact in S. lividans by any of the fre genes on biocatalysis activity”.

B2: ferredoxin reductase encoded by fre16 from strain I-1529 (enzyme)
chain: VVDAHQTFVIVGGGLAGAKAAETLRAEGFTGRVILICDERDHPYERPPLSKGFLLGKEERDSVFVHEPAWYAQAQIELHLGQPAVRLDPEAKTVRLGDGTLIAYDKLLLATGAEPRRLDIPGTGLAGVHHLRRLAHAERLRGVLASLGRDNGHLVIAGAGWIGLEVAAAARSYGAEVTVVEAAPTPLHGILGPELGGLFTELHRAHGVRFHFGARFTEIVGQDGMVLAVRTDDGEEHPAHDVLAAIGAAPRTALAEQAGLDLADPEAGGGVAVDATLRTSDPYIYAAGDVAAADHPLLDTRLRVEHWANALNGGPAAARAMLGQDISYDRVPYFFSDQYDVGMEYSGYAPPGSYAQVVCRGDVAKREFIAFWLGEDGRLLAGMNVNVWDVAETIQQLIRGGVRLEPGELADPEVPLTSLLP
On to B2, for which, in data set [1], the “biocatalysis activity, S. lividans ZX7 with ema1/fd233/fre operons in pTUA, pTBBKA and pEAA” value was “In each case there was no impact in S. lividans by any of the fre genes on biocatalysis activity”. For the same molecule, in data set [2], the conversion of avermectin to 4″-keto-avermectin, P. putida ATCC 17453 with the ema1/fd233/fre16 operon (whole cell assay; 23% without fre16) was 44 % conversion.

B3: ferredoxin encoded by fd233 from strain I-1529 (protein)
chain: T1 chain
In the case of B3, in data set [3], the % Conversion of Avermectin, 2 hour (S. lividans ZX7 + pEAA-ema1/fd233, whole cells) came out at 8.26 % conversion; the % Conversion of Avermectin, 2 hour (S. lividans ZX7 + pTBBKA-ema1/fd233, whole cells) is 8.89 % conversion; the % Conversion of Avermectin, 2 hour (S. lividans ZX7 + pTUA-ema1/fd233, whole cells) stood at 23.3 % conversion; the % Conversion of Avermectin, 16 hour (Pseudomonas putida + pRK-ema1/fd233, whole cells) stood at 32 % conversion. In data set [3], the % Conversion of Avermectin, 16 hour (S. lividans ZX7 + pEAA-ema1/fd233, whole cells) came to 10.7 % conversion; the % Conversion of Avermectin, 16 hour (S. lividans ZX7 + pTBBKA-ema1/fd233, whole cells) was found to be 31 % conversion; the % Conversion of Avermectin, 16 hour (S. lividans ZX7 + pTUA-ema1/fd233, whole cells) came out at 61.2 % conversion; the biocatalysis activity of pTUA-ema1/fd233 in S. lividans relative to pTUA-ema1 (fold) fell in the range of 1.5 to 3 fold. Also, in data set [4], the % Conversion of avermectin, 16 hrs (S. avermitilis MOS-0001 + pTBBKA-ema1A/fd233, whole cells) came out at 28.5 % conversion and the % Conversion of avermectin, 16 hrs (S. avermitilis MOS-0001 + pTUA-ema1A/fd233, whole cells) amounted to 24 % conversion. In addition, in data set [5], the % Conversion of Avermectin, 2 hour (S. lividans ZX7 + pTUA-ema2/fd233, whole cells) stood at 1.85 % conversion and the % Conversion of Avermectin, 16 hour (S. lividans ZX7 + pTUA-ema2/fd233, whole cells) worked out at 6.4 % conversion.

B4: ferredoxin reductase encoded by fre14 (protein)
chain: MAQNTAFIIAGAGLAGAKAAETLRAEGFGGPVLLLGDERERPYERPPLSKGYLLGTSEREKAYVHPPQWYAEHDVDLRLGNAVTALDPAGHEVTLADGSRLGYAKLLLATGSTPRRLPVPGADLDGVHTLRYLADSDRLKDLFRSASRIVVIGGGWIGLETTAAARAAGVEVTVLESAPLPLLGVLGREVAQVFADLHTEHGVALRCDTQVTEITGTNGAVDGVRLADGTRIAADAVIVGVGITPNSETAAAAGLKVDNGVVVDERLCSSHPDIYAAGDVANAYHPLLGKHLRVEHWANALHQPKTAARAMLGGEAGYDRLPYFFTDQYDLGMEYTGHVEPGGYDRVVFRGDTGAREFIAFWLSGGRVLAGMNVNVWDVTDPIRALVASGRAVDPERLADADVPLADLVP
B4: the “biocatalysis activity, S. lividans ZX7 with ema1/fd233/fre operons in pTUA, pTBBKA and pEAA” value in data set [1] is listed as “In each case there was no impact in S. lividans by any of the fre genes on biocatalysis activity”.

B5: ferredoxin reductase encoded by fre3 (protein)
chain: VVDAHQTFVIVGGGLAGAKAAETLRAEGFTGRVILICDERDHPYERPPLSKGFLLGKEERDSVFVHEPAWYAQAQIELHLGQPAVRLDPEGRTVRLGDGTLIAYDKLLLATGAEPRRLDIPGTGLAGVHHLRRLAHAERLRGVLASLGRDNGHLVIAGAGWIGLEVAAAARSYGAEVTVVEAAPTPLHGILGPELGGLFTDLHREHGVRFHFGARFTEIVGEGGMVLAVRTDDGEEHPAHDVLAAIGAAPRTALAEQAGLDLADPETGGGVAVDAALRTSDPYIYAAGDVAAADHPLLDTRLRVEHWANALNGGPAAARAMLGQDISYDRIPYFFSDQYDVGMEYSGYAPPGSYAQVVCRGDVAKREFIAFWLAADGRLLAGMNVNVWDVAESIQQLIRSGAPLEPGALADPQVPLAALLP
For B5, the “biocatalysis activity, S. lividans ZX7 with ema1/fd233/fre operons in pTUA, pTBBKA and pEAA” value in data set [1] is recorded as “In each case there was no impact in S. lividans by any of the fre genes on biocatalysis activity”.
